In article PMC10067955:

Target: NcsA from Methanococcus maripaludis (Methanococcus maripaludis)
Assay: SEC; apo-MmNcsA on a gel filtration column calibrated with protein standards

stoichiometry N: 2
Substance: NcsA from Methanococcus maripaludis (enzyme)
